# B1: Escherichia coli FrmR (EcFrmR) (natural protein, Escherichia coli K-12, UniProt P0AAP3 2-91, looked up)
# chain: PSTPEEKKKVLTRVRRIRGQIDALERSLEGDAECRAILQQIAAVRGAANGLMAEVLESHIRETFDRNDCYSREVSQSVDDTIELVRAYLK
# notes: FrmR, transcriptional repressor of the frmRAB operon, E. coli K-12; last residue Lys91; frmR amplified from E. coli K12 genomic DNA and ligated into pET22b at NdeI and NcoI; no tag is mentioned and the measured mass fits the untagged protein without Met1; source: E. coli expression strains (JRG6782, 6783 and 6784), frmR in pET22b, purified (Heparin-HP, HiLoad Superdex 200)
# B2: EcFrmR(C35A) (natural protein, Escherichia coli K-12, UniProt P0AAP3 2-91, looked up)
# chain: PSTPEEKKKVLTRVRRIRGQIDALERSLEGDAEARAILQQIAAVRGAANGLMAEVLESHIRETFDRNDCYSREVSQSVDDTIELVRAYLK
# notes: FrmR, E. coli K-12, with C35A; Mutation made by overlap PCR or Quikchange; also called C35A variant; source: E. coli expression strains (JRG6782, 6783 and 6784), purified (Heparin-HP, HiLoad Superdex 200)
# B3: EcFrmR(P2A) (natural protein, Escherichia coli K-12, UniProt P0AAP3 2-91, looked up)
# chain: ASTPEEKKKVLTRVRRIRGQIDALERSLEGDAECRAILQQIAAVRGAANGLMAEVLESHIRETFDRNDCYSREVSQSVDDTIELVRAYLK
# notes: FrmR, E. coli K-12, with P2A; Mutation made by overlap PCR or Quikchange; also called P2A variant; source: E. coli expression strains (JRG6782, 6783 and 6784), purified (Heparin-HP, HiLoad Superdex 200)
# Biological target: the molecule itself
# Experiment: SEC; calibrated size exclusion chromatography column; elution volume compared with standards
row,Protein,stoichiometry N
1,B1,4
2,B2,4
3,B3,4

# From publication PMC5146963, “The mechanism of a formaldehyde-sensing transcriptional regulator” (Scientific Reports, 2016)
